Reference: publication PMC8776769, “Structure and mechanism of the RNA dependent RNase Cas13a from Rhodobacter capsulatus”

Target: T1, RcCas13a (Rhodobacter capsulatus, UniProt D5AUW0 1-1285)
T1 sequence: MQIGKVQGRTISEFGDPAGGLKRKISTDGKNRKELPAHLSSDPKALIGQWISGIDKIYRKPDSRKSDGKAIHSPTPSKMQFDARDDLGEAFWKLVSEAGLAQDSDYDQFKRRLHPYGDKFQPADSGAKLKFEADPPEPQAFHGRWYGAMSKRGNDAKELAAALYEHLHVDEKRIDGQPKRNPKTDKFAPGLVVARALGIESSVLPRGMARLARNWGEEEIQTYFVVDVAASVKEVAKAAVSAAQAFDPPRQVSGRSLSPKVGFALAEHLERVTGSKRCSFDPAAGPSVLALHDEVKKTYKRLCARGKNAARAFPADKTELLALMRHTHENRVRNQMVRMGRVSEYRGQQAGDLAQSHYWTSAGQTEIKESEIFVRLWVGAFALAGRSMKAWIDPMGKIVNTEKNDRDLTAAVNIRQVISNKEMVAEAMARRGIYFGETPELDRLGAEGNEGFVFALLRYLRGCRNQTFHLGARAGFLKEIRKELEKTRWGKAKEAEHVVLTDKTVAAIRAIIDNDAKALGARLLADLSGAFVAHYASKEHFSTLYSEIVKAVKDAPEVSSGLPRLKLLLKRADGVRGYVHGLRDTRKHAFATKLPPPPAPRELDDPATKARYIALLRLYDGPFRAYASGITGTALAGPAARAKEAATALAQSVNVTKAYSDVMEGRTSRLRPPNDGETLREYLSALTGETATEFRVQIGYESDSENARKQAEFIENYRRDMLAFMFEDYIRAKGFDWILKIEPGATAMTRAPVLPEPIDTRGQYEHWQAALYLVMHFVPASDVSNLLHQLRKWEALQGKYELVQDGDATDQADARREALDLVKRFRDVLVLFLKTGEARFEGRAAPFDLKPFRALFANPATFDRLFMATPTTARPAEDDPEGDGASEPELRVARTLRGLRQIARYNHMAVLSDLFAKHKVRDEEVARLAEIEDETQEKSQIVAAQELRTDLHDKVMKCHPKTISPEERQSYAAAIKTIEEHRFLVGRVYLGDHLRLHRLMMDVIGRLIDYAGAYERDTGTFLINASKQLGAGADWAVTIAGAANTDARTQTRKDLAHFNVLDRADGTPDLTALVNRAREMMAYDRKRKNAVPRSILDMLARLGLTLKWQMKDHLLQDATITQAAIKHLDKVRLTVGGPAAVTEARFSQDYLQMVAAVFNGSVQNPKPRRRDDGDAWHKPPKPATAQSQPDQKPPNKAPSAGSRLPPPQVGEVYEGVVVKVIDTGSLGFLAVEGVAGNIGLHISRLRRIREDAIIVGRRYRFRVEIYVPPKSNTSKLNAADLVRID
Assay: X-ray crystal structure (2.1 A); binary complex, no target RNA; Complex co-purified by Ni affinity and SEC: 50 mM Hepes pH 8.0, 500 mM NaCl, 10% glycerol, 1 mM DTT, 4-8 C; crystallization conditions not in material
Settings: protein: recombinant; tags: C-terminal His6, not removed for the crRNA complex; hairpin

B1: crRNA for crystallization (structured_RNA)
RNA: GCCUCACAUCACCGCCAAGACGACGGCGGACUGAACCUUCAUUACCUCUGUUUG
Q: Does B1 bind?
A: binds
